Measurements as given in patent publication US20230039976A1.

Tests used:
[1] = biological target: programmed cell death protein 1 (PD-1) on tumor infiltrating lymphocytes (human) (UniProt Q15116); experiment: flow cytometry of melanoma tumor digest M1156; EH12.2H7 staining; percent of CD3+ cells stained
[2] = biological target: programmed cell death protein 1 (PD-1) on tumor infiltrating lymphocytes (human) (UniProt Q15116); experiment: flow cytometry of ovarian tumor digest OV8074; EH12.2H7 staining; percent of CD3+ cells stained
[3] = biological target: programmed cell death protein 1 (PD-1) on tumor infiltrating lymphocytes (human) (UniProt Q15116); experiment: flow cytometry of head and neck tumor digest H3046; EH12.2H7 staining; percent of CD3+ cells stained

UniProt Q15116, sequence (Q15116 25-288): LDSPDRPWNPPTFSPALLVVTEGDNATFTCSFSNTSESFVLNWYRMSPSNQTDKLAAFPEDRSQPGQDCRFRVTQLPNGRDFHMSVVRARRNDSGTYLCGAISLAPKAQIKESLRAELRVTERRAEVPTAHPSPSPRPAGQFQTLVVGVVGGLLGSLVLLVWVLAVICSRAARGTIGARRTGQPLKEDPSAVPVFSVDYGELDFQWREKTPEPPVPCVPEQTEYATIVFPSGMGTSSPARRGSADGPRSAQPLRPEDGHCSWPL

B1: anti-PD-1 antibody clone EH12.2H7 (BioLegend, Cat #329906) (antibody, from another filing, V domains shown)
VH: QVQLQQSGAELAKPGASVQMSCKASGYSFTSSWIHWVKQRPGQGLEWIGYIYPSTGFTEYNQKFKDKATLTADKSSSTAYMQLSSLTSEDSAVYYCARWRDSSGYHAMDYWGQGTSVTVSS
VL: DIVLTQSPASLTVSLGQRATISCRASQSVSTSGYSYMHWYQQKPGQPPKLLIKFGSNLESGIPARFSGSGSGTDFTLNIHPVEEEDTATYYCQHSWEIPYTFGGGTKLEIK
B1 gave a Pre-sort % PD-1+ (of CD3+) [1] of 93%, a Pre-sort % PD-1+ (of CD3+) [2] of 70% and a Pre-sort % PD-1+ (of CD3+) [3] of 13%.
